Measurements: PMC11346345 (Cell reports, 2024)

Target: recombinant GP38 of CCHFV Afg09-2990 (Crimean-Congo hemorrhagic fever virus, …, UniProt E5FEZ4, strain)
Assay: SPR

B1: ADI-58048 IgG (antibody, V domains shown)
VH: QLQLQESGPGLVKPSETLSLTCTVSGGSITTSHYYWGWIRQPPGKGLEWVGSMYYSGGIYYNPSLKGRVTISVDTSKNQFSLKLSSVTAADTAVYYCALADAPDDAFDIWGQGTMVTVSS
VL: DIQMTQSPSSLSAFVGDRVTITCRASQSISSYLNWYQQKPGKAPKLLIYAASTLQSGVPSRFSGSGSGTDFTLTISSLQSEDFATYYCQESYSIPFTFGPGTKVDIK
For B1, the “fold reduction in binding” value was roughly 27 fold.
